The text below walks through data of patent publication US20210292426A1.

A word on the EC50: it is the concentration giving half of the maximal effect. High values mean a need for much substance, low ones an effect from little substance. For orientation: Kd means the constant that tells how readily two partners part at equilibrium. A low value points to higher affinity. For orientation: koff means the first-order rate constant of dissociation. The low end stands for slow dissociation, the high end for fast dissociation. In general, kon refers to the second-order rate constant of association.

For experiment [1], the target named is human CD40 expressed on cells (human) (UniProt P25942). As to the kind of experiment: flow cytometry, Raji cells. A general note: In flow cytometry, cells or beads pass a laser one at a time.
The target of experiment [2] is human CD40 extracellular domain with C-terminal His-AviTag (human) (UniProt P25942). Briefly: SPR (Biacore), antibody captured, CD40 ECD analyte.
Experiment [3] has as its target human CD40 expressed on cells (human) (UniProt P25942). As to the kind of experiment: flow cytometry, primary human B cells.

B1: P1AD4470 (CD40 IgG1, control) (antibody, from a related filing, V domains shown)
VH: EVQLVESGGGLVQPGGSLRLSCAASGYSFTGYYIHWVRQAPGKGLEWVARVIPNAGGTSYNQKFKGRFTLSVDNSKNTAYLQMNSLRAEDTAVYYCAREGIYWWGQGTLVTVSS
VL: DIQMTQSPSSLSASVGDRVTITCRSSQSLVHSNGNTFLHWYQQKPGKAPKLLIYTVSNRFSGVPSRFSGSGSGTDFTLTISSLQPEDFATYFCSQTTHVPWTFGQGTKVEIKR
With B1, the EC50 in experiment [1] came to 0.09 µg/mL. In experiment [2], this molecule showed a Kd of 4.6 nM, a koff of 0.00781 s⁻¹ and a kon of 1.69e+06 M⁻¹ s⁻¹. In addition, the EC50 in experiment [3] was 0.333 nM.
